In patent US6358897B1, “Alkyl trypsin compositions and methods of use in contact lens cleaning and disinfecting systems” (Alcon Laboratories, Inc., priority 1996, dated 2002):

How the values were obtained:
Format in all cases: physicochemical
azocasein [1] = assay: Stability of Me-trypsin versus other trypsin analogs in a Part I composition (azocasein method); details: for % Activity Remaining: 45° C., 50% L-sorbose 1% borax, pH 5.79 (acetylated trypsin pH 7.54)
Procedure: Azocasein Method The following solutions are used in this assay: 1) Buffer solution: 0.05 M sodium phosphate buffer containing 0.9% sodium chloride, pH 7.6. 2) Substrate solution: 2 mg/ml azocasein in the buffer solution mentioned above. The assay is initiated by mixing 1 ml of an appropriately diluted (such that the enzyme activity is in the range of standard curve) enzyme composition in phosphate buffer with 2 ml of azocasein substrate solution (2 mg/ml). After incubation at 37° C. for 20 minutes, the mixture is removed from the incubator and 1 ml of trichloroacetic acid to (14% w/v) is added to stop the enzyme reaction. The mixture is vortexed well and allowed to stand at room temperature for 20 minutes. After centrifuging at 2500 rpm (with a Beckman GS-6R Centrifuge) for 15 minutes, the supernatant is filtered with a serum sampler. 2 ml of the clear yellow filtrate is then adjusted to a neutral pH with 2 ml of 0.5 N sodium hydroxide and the absorbance of 440 nm wavelength light is measured with a spectrophotometer. The amount of azocasein hydrolyzed is calculated based on a standard curve of known concentrations of azocasein solution developed under identical conditions. An enzyme activity unit (“AZ U”) is defined as that amount of enzyme which hydrolyzes 1 μg of azocasein substrate/minute at 37° C. […] The enzymes were solubilized in a Part I composition containing 50% (w/v) L-sorbose 1% (w/v) borax (Na2B4O7.10H2O), at pH 5.79, except the acetylated trypsin composition was at pH 7.54. The compositions were stored at 45° C. for 240 hours. At various time points, enzyme activity was assayed using the azocasein method.

azocasein [2] = assay: Thermal stability of Me-trypsin and trypsin in a disinfecting solution (Example 5C), azocasein method; details: Example 5C composition, 50 μg/ml
Procedure: Azocasein Method The following solutions are used in this assay: 1) Buffer solution: 0.05 M sodium phosphate buffer containing 0.9% sodium chloride, pH 7.6. 2) Substrate solution: 2 mg/ml azocasein in the buffer solution mentioned above. The assay is initiated by mixing 1 ml of an appropriately diluted (such that the enzyme activity is in the range of standard curve) enzyme composition in phosphate buffer with 2 ml of azocasein substrate solution (2 mg/ml). After incubation at 37° C. for 20 minutes, the mixture is removed from the incubator and 1 ml of trichloroacetic acid to (14% w/v) is added to stop the enzyme reaction. The mixture is vortexed well and allowed to stand at room temperature for 20 minutes. After centrifuging at 2500 rpm (with a Beckman GS-6R Centrifuge) for 15 minutes, the supernatant is filtered with a serum sampler. 2 ml of the clear yellow filtrate is then adjusted to a neutral pH with 2 ml of 0.5 N sodium hydroxide and the absorbance of 440 nm wavelength light is measured with a spectrophotometer. The amount of azocasein hydrolyzed is calculated based on a standard curve of known concentrations of azocasein solution developed under identical conditions. An enzyme activity unit (“AZ U”) is defined as that amount of enzyme which hydrolyzes 1 μg of azocasein substrate/minute at 37° C. The following is an example of the stability of Me-trypsin in a disinfecting composition of the present invention as compared to an analogous composition containing trypsin. The enzymes were solubilized in the Example 5C composition. The two compositions were incubated at 35° C. or 40° C. At the appointed time, aliquots were tested for enzyme activity by the azocasein method. Activity levels were compared with initial levels and expressed as percent remaining activity.

azocasein [3] = assay: Enzyme stability of the Example 6 multi-purpose composition versus trypsin or pancreatin compositions, azocasein method; details: Me-trypsin: Example 6 composition, trypsin/pancreatin: 1.4 mL of Example 3B analog in 120 mL of Example 2B
Procedure: Azocasein Method The following solutions are used in this assay: 1) Buffer solution: 0.05 M sodium phosphate buffer containing 0.9% sodium chloride, pH 7.6. 2) Substrate solution: 2 mg/ml azocasein in the buffer solution mentioned above. The assay is initiated by mixing 1 ml of an appropriately diluted (such that the enzyme activity is in the range of standard curve) enzyme composition in phosphate buffer with 2 ml of azocasein substrate solution (2 mg/ml). After incubation at 37° C. for 20 minutes, the mixture is removed from the incubator and 1 ml of trichloroacetic acid to (14% w/v) is added to stop the enzyme reaction. The mixture is vortexed well and allowed to stand at room temperature for 20 minutes. After centrifuging at 2500 rpm (with a Beckman GS-6R Centrifuge) for 15 minutes, the supernatant is filtered with a serum sampler. 2 ml of the clear yellow filtrate is then adjusted to a neutral pH with 2 ml of 0.5 N sodium hydroxide and the absorbance of 440 nm wavelength light is measured with a spectrophotometer. The amount of azocasein hydrolyzed is calculated based on a standard curve of known concentrations of azocasein solution developed under identical conditions. An enzyme activity unit (“AZ U”) is defined as that amount of enzyme which hydrolyzes 1 μg of azocasein substrate/minute at 37° C. […] The trypsin or pancreatin compositions were prepared by dispersing 1.4 mL of Example 3B (wherein Me-trypsin was replaced by either trypsin or pancreatin) in 120 mL of Example 2B. The compositions were incubated at room temperature, 30° and 35° C. At the appointed time, aliquots were tested for enzyme activity by the azocasein method. Activity levels were compared with initial levels and expressed as percent remaining activity.

| Substance | % Activity Remaining (azocasein [1]; 0 Hr.) | % Activity Remaining (azocasein [1]; 64 Hr.) | % Activity Remaining (azocasein [1]; 96 Hr.) | % Activity Remaining (azocasein [1]; 120 Hr.) | % Activity Remaining (azocasein [1]; 144 Hr.) | % Activity Remaining (azocasein [1]; 240 Hr.) | % Activity Remaining (azocasein [2]; 35° C., 24 hrs) | % Activity Remaining (azocasein [2]; 35° C., 48 hrs) | % Activity Remaining (azocasein [2]; 35° C., 72 hrs) | % Activity Remaining (azocasein [2]; 35° C., 168 hrs) | % Activity Remaining (azocasein [2]; 40° C., 24 hrs) | % Activity Remaining (azocasein [2]; 40° C., 114 hrs) | % Activity Remaining (azocasein [2]; 40° C., 168 hrs) | % Remaining Activity (azocasein [3]; 30° C., 1 week) | % Remaining Activity (azocasein [3]; 30° C., 2 weeks) | % Remaining Activity (azocasein [3]; 30° C., 3 weeks) | % Remaining Activity (azocasein [3]; 30° C., 4 weeks) | % Remaining Activity (azocasein [3]; 30° C., 6 weeks) | % Remaining Activity (azocasein [3]; 30° C., 8 weeks) | % Remaining Activity (azocasein [3]; 35° C., 1 week) | also measured |
| --- | --- | --- | --- | --- | --- | --- | --- | --- | --- | --- | --- | --- | --- | --- | --- | --- | --- | --- | --- | --- | --- |
| Trypsin [Native Trypsin, reference compound] | 100.0% | 62.9% | 56.8% | 53.1% | 49.1% | 41.4% | 69.9% | 55.9% | 48.5% | 37.6% | 42.4% | 19.4% | 17.4% | 65.7% | 54.6% | 47.1% | 44.9% | 35.8% | 30.4% | 30.8% | % Remaining Activity (azocasein [3]; 35° C., 2 weeks): 19.9%; % Remaining Activity (azocasein [3]; 35° C., 3 weeks): 13.3%; % Remaining Activity (azocasein [3]; 35° C., 4 weeks): 12.8%; % Remaining Activity (azocasein [3]; 35° C., 6 weeks): 8.8%; % Remaining Activity (azocasein [3]; 35° C., 8 weeks): 5.2%; % Remaining Activity (azocasein [3]; RT, 1 week): 93.5%; % Remaining Activity (azocasein [3]; RT, 2 weeks): 86.8%; % Remaining Activity (azocasein [3]; RT, 3 weeks): 82.5%; % Remaining Activity (azocasein [3]; RT, 4 weeks): 79.5%; % Remaining Activity (azocasein [3]; RT, 6 weeks): 71.0%; % Remaining Activity (azocasein [3]; RT, 8 weeks): 64.2% |
| methyl trypsin [Me-Trypsin] | 100.0% | 89.4% | 86.3% | 84.7% | 82.2% | 76.1% | 97.6% | 96.4% | 91.6% | 87.3% | 88.9% | 75.2% | 67.0% | 97.0% | 97.2% | 91.1% | 90.6% | 85.8% | 83.0% | 82.1% | enzyme stability in a Part I composition over other trypsin related enzyme compositions (azocasein [1]; summary of Table 1): superior enzyme stability; % Remaining Activity (azocasein [3]; 35° C., 2 weeks): 75.0%; % Remaining Activity (azocasein [3]; 35° C., 3 weeks): 71.4%; % Remaining Activity (azocasein [3]; 35° C., 4 weeks): 65.2%; % Remaining Activity (azocasein [3]; 35° C., 6 weeks): 55.9%; % Remaining Activity (azocasein [3]; 35° C., 8 weeks): 50.3%; % Remaining Activity (azocasein [3]; RT, 1 week): 101.3%; % Remaining Activity (azocasein [3]; RT, 2 weeks): 99.6%; % Remaining Activity (azocasein [3]; RT, 3 weeks): 98.4%; % Remaining Activity (azocasein [3]; RT, 4 weeks): 98.1%; % Remaining Activity (azocasein [3]; RT, 6 weeks): 96.0%; % Remaining Activity (azocasein [3]; RT, 8 weeks): 96.4% |
